B1: monoclonal antibody NB117-2F4 (antibody, mouse IgG2b, kappa, V domains shown)
VH: EVQLQESGPSLVKPSQTLSLTCSVTGDSITSGFWSWIRKFPGNKLEFMGYIKYSGDTYFNPSLKSRISITRDTSKNQYYLQLNSVTPEDTATYYCSDMDYWGQGTSVTVSS
VL: DVVMTQTPRSLPVSLGDQASISCRSSQSLVHNNGNTYLHWYLQMPGQSPKLLIYKVSNRFSGVPDRFSGSGSGTDFTLKISRVEAEDLGVYFCSQITHVPWTFGGGTKLEIKR
notes: also called mAb
B2: selection peptide GIATKGLNGP (peptide)
peptide: H-GIATKGLNGP

Test [1] concerns the target T1, biotinylated synthetic peptide GIATKGLNGP-k(Biotin) (human, not fully specified (C-terminus); also: lowercase k not explained).
T1 construct: Captured on streptavidin-coated microplates; also called biotinylated peptide; coater peptide
T1 peptide: H-GIATKGLNGP
The test is described as follows: competitive ELISA, biotinylated peptide on streptavidin plate (FIG. 1 legend). The procedure: (§1) A purified monoclonal antibody was first tested for peptide-binding specificity by three synthetic peptides, selection peptide ([…]; SEQ ID NO: 1), elongation of the selection peptide ([…]; SEQ ID NO: 3) and truncation of the selection peptide ([…]; SEQ ID NO: 4), and then used in a competitive immunoassay. After optimization with buffer, temperature, incubation time and concentrations for key reagents, the final protocol for detection of ⁴⁷⁹GIATKG (SEQ ID NO: 2) assay was developed as follows: a 96-well streptavidin pre-coated micro plate was coated with 1 ng/ml biotinylated peptide, […]-k(Biotin) (SEQ ID NO: 5) dissolved in 50 mM PBS-BTB buffer (phosphate-buffered saline with bovine serum albumin and Tween-20, pH7.4) for 30 min at 20° C. Then, the plate was washed 5 times by standard wash buffer (20 mM Tris, 50 mM NaCl, pH 7.2). 20 μL of the peptide standards, kit controls or samples were added to appropriate wells, followed by 100 μL of 23 ng/ml monoclonal antibody in 50 mM PBS-BTB buffer containing 5% Osteocalcin EIA Puf-Liq (Roche diagnostics, Germany), and incubated overnight (20±1 hr) at 4° C. After 5 times wash, 100 μL of goat anti-mouse secondary antibody (115-035-003, Jackson ImmunoResearch) was added and incubated for 1 hr at 20° C. […] The colorimetric reaction was stopped by adding 100 μL stopping solution (1% H₂SO₄) and measured at 450 nm with 650 nm as the reference.
Background: An ELISA detects its analyte on a solid surface through an enzyme-linked reagent.

Test [2] concerns the target T2, elongation of the selection peptide AGIATKGLNGP (human).
T2 construct: Synthetic peptide: the selection peptide with one alanine added at the N-terminus; also called elongated peptide; N-extended elongated version
T2 peptide: AGIATKGLNGP
Kind of test: competitive ELISA, displacement of 2F4 from the coated biotinylated peptide. The procedure:
(§2) A purified monoclonal antibody was first tested for peptide-binding specificity by three synthetic peptides, selection peptide ([…]; SEQ ID NO: 1), elongation of the selection peptide ([…]; SEQ ID NO: 3) and truncation of the selection peptide ([…]; SEQ ID NO: 4), and then used in a competitive immunoassay. After optimization with buffer, temperature, incubation time and concentrations for key reagents, the final protocol for detection of ⁴⁷⁹GIATKG (SEQ ID NO: 2) assay was developed as follows: a 96-well streptavidin pre-coated micro plate was coated with 1 ng/ml biotinylated peptide, […]-k(Biotin) (SEQ ID NO: 5) dissolved in 50 mM PBS-BTB buffer (phosphate-buffered saline with bovine serum albumin and Tween-20, pH7.4) for 30 min at 20° C. Then, the plate was washed 5 times by standard wash buffer (20 mM Tris, 50 mM NaCl, pH 7.2). 20 μL of the peptide standards, kit controls or samples were added to appropriate wells, followed by 100 μL of 23 ng/ml monoclonal antibody in 50 mM PBS-BTB buffer containing 5% Osteocalcin EIA Puf-Liq (Roche diagnostics, Germany), and incubated overnight (20±1 hr) at 4° C. After 5 times wash, 100 μL of goat anti-mouse secondary antibody (115-035-003, Jackson ImmunoResearch) was added and incubated for 1 hr at 20° C. After this step, the plate was washed for 5 times with wash buffer. Finally, 100 μL 3,3′,5,5′-tetramethylbenzidine (TMB) was added to each well and incubated for 15 min at 20° C. in the dark. The colorimetric reaction was stopped by adding 100 μL stopping solution (1% H₂SO₄) and measured at 450 nm with 650 nm as the reference.

Test [3] addresses B2. Described as above. The procedure:
as §2

The target in test [4] is T3, truncation of the selection peptide IATKGLNGP (human).
T3 construct: Synthetic peptide: the selection peptide without its N-terminal glycine; also called truncated peptide; N-truncated shortened version
T3 peptide: IATKGLNGP
Described as above. The procedure:
as §2

Test [5] has as its target B1. Kind of test: competitive ELISA (Col10neo): peptide standard competes with the coated …-k(Biotin) for 2F4. The procedure: as §1, with “7.2).” for “7.2). 20 μL of the peptide standards, kit controls or samples were added to appropriate wells, followed by 100 μL of 23 ng/ml monoclonal antibody in 50 mM PBS-BTB buffer containing 5% Osteocalcin EIA Puf-Liq (Roche diagnostics, Germany), and incubated overnight (20±1 hr) at 4° C. After 5 times wash, 100 μL of goat anti-mouse secondary antibody (115-035-003, Jackson ImmunoResearch) was added and incubated for 1 hr at 20° C.”
The inter- and intra-plate variation were determined by 10 independent runs of quality control panel (three human sera and two peptide standard) in duplicate. The lower limit of detection (LLOD) was calculated as 3SD of the mean value of 21 zero standard. […] Percent recovery was calculated as the measured concentration divided by the expected concentration corrected for dilution.

No end group written: not given here.

In the case of B1, the binding result was “binds” in test [1], “no binding (tested: 1000 ng/mL)” in test [2], “binds” in test [3] and “no binding (tested: 1000 ng/mL)” in test [4].
B2: the half-inhibitory concentration (IC50) (usually the concentration at which inhibition is half-maximal) in test [5] was determined as 0.0419 µg/mL.

These data come from patent US20220146528A1 (NORDIC BIOSCIENCE A S, published 2022).
